The values that follow are results of earlier work, collected in US20020119948A1, “METHOD FOR EXTENDING THE SATIETY OF FOOD BY ADDING A NUTRITIONAL COMPOSITION DESIGNED TO STIMULATE CHOLECYSTOKININ(CCK)” (PacificHealth Laboratories, Inc., priority 2000, published 2002).

The subject of the data set is Individuals. Particulars: CCK administered by injection.

B1: cholecystokinin (peptide, UniProt P06307 21-115, looked up)
Cholecystokinin: QPVPPADPAGSGLQRAEEAPRRQLRVSQRTDGESRAHLGALLARYIQQARKAPSGRMSIVKNLQNLDPSHRISDRDYMGWMDFGRRSAEEYEYPS
modifications: Cholecystokinin
On to B1, for which the “decrease in caloric intake” value is 16-22%.
